For the data set, the system named is GST-CELF1 (recombinant human CELF1) (Homo sapiens). Briefly: EMSA. Conditions: 3 fmol RNA with increasing GST-hCELF1, 5% native polyacrylamide gel; buffer, salt, pH and temperature not given (cited ref 31). (In general: A gel shift assay detects complexes by their altered migration in electrophoresis.)

Results on 7 substances are retold here after paper PMC5271678.

A value given as a limit tells only on which side of the number the result lay.

Take 7SL RNA fragment (negative control): the Kd is above 300 nM. As for Srp9 3'UTR fragment, the figure is 0.84 nM; as for Srp14 3'UTR fragment, 12.4 nM; as for Srp19 3'UTR fragment, 33.8 nM. The figure for Srp54 3'UTR fragment is 13.5 nM; for Srp68 3'UTR fragment it is 1.64 nM; for Srp72 3'UTR fragment it is 0.53 nM.

Broadly, the Kd is a measure of binding affinity in units of concentration.
